Experimental data from article doi:10.1101/2021.09.12.459968.
Values joined by “and” are separate entries in the source; they are usually repeats but may differ in a detail not shown here. Equal values may be shown once.

Columns and labels:
[1] = target: T1, full-length mouse NLRP3 (FLAG-mScarlet tag removed), double ring cage (mouse), Q8R4B8; assay: cryo-EM structure; details: remark: other sources report otherwise
T1 chain: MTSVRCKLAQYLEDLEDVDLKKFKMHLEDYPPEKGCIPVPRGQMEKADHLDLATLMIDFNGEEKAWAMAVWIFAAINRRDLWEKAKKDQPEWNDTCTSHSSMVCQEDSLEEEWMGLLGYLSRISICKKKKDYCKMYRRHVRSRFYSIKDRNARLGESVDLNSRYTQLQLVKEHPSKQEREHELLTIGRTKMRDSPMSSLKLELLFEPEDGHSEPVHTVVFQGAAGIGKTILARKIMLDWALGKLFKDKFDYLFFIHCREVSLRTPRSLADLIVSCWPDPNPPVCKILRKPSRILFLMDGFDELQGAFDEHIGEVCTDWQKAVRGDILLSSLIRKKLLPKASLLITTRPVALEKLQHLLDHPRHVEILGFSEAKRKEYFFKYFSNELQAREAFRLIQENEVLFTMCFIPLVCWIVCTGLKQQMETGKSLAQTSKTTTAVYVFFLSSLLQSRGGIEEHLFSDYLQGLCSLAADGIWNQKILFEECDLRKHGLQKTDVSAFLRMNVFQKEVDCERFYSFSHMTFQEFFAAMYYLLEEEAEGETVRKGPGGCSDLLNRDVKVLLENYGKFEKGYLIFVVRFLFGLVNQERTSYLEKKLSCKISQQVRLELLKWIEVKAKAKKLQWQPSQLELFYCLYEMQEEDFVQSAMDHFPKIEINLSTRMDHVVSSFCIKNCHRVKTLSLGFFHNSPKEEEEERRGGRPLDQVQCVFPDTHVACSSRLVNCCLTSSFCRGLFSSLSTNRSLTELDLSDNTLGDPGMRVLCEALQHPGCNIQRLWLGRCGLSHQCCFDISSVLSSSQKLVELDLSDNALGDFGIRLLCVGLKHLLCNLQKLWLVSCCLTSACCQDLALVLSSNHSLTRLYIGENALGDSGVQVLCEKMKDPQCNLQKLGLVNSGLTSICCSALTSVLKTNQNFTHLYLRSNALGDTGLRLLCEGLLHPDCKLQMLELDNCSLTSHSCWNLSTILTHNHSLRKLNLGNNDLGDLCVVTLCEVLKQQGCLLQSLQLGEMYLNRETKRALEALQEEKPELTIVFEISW

[2] = target: T1, full-length mouse NLRP3 (FLAG-mScarlet …); assay: cryo-EM structure; details: remark: other sources report otherwise

stoichiometry N [1]: 12 and 14 and 16
stoichiometry N [2]: 12
B1: full-length mouse NLRP3 (FLAG-mScarlet tag removed), double ring cage, Q8R4B8 1-1033 (natural protein)
chain: T1 chain
